Measured values from patent US10450368.

How the values were obtained:
Scl-70 [1] = target: Scl-70 (UniProt P11387); experiment: AtheNA, Ab 6.25 ug/ml
SSB [2] = target: SSB (UniProt P05455); experiment: AtheNA, Ab 6.25 ug/ml
SSA [3] = experiment: AtheNA, Ab 6.25 ug/ml
Jo-1 [4] = target: Jo-1 (UniProt P12081); experiment: AtheNA, Ab 6.25 ug/ml
RNP (ribonucleoprotein) [5] = experiment: AtheNA, Ab 6.25 ug/ml
Sm (Smith antigen) [6] = experiment: AtheNA, Ab 6.25 ug/ml
Centromere B [7] = target: Centromere B (UniProt P07199); experiment: AtheNA, Ab 6.25 ug/ml
Histones [8] = experiment: AtheNA, Ab 6.25 ug/ml
[9] = target: HIV-1 CH505 transmitted/founder gp120 Env (HIV-1); experiment: competition ELISA, blocking of CH236 binding to CH505 TF gp120
[10] = target: HIV-1 CH505 transmitted/founder gp120 Env (HIV-1); experiment: competition ELISA, blocking of CH235 binding to CH505 TF gp120
Scl-70 [11] = target: Scl-70 (UniProt P11387); experiment: AtheNA, Ab 12.5 ug/ml
SSB [12] = target: SSB (UniProt P05455); experiment: AtheNA, Ab 12.5 ug/ml
SSA [13] = experiment: AtheNA, Ab 12.5 ug/ml
Jo-1 [14] = target: Jo-1 (UniProt P12081); experiment: AtheNA, Ab 12.5 ug/ml
RNP (ribonucleoprotein) [15] = experiment: AtheNA, Ab 12.5 ug/ml
Sm (Smith antigen) [16] = experiment: AtheNA, Ab 12.5 ug/ml
Centromere B [17] = target: Centromere B (UniProt P07199); experiment: AtheNA, Ab 12.5 ug/ml
Histones [18] = experiment: AtheNA, Ab 12.5 ug/ml
Scl-70 [19] = target: Scl-70 (UniProt P11387); experiment: AtheNA, Ab 25 ug/ml
SSB [20] = target: SSB (UniProt P05455); experiment: AtheNA, Ab 25 ug/ml
SSA [21] = experiment: AtheNA, Ab 25 ug/ml
Jo-1 [22] = target: Jo-1 (UniProt P12081); experiment: AtheNA, Ab 25 ug/ml
RNP (ribonucleoprotein) [23] = experiment: AtheNA, Ab 25 ug/ml
Sm (Smith antigen) [24] = experiment: AtheNA, Ab 25 ug/ml
Centromere B [25] = target: Centromere B (UniProt P07199); experiment: AtheNA, Ab 25 ug/ml
Histones [26] = experiment: AtheNA, Ab 25 ug/ml
[27] = target: HIV-1 CH505 transmitted/founder gp120 Env (HIV-1); experiment: competition ELISA, blocking of CH106 binding to CH505 TF gp120 (self)
CH505.M11D8gp120/293F = experiment: direct-binding ELISA
[28] = target: CH505w160.C2D8gp120 (HIV-1); experiment: direct-binding ELISA
[29] = target: CH505w160.D5D8gp120/293F (HIV-1); experiment: direct-binding ELISA
[30] = target: CH505.TF mutant gp120 M8 (HIV-1); experiment: direct-binding ELISA
[31] = target: CH505w136.B5D8gp120 (HIV-1); experiment: direct-binding ELISA
[32] = target: CH505w160.T4D8gp120/293F (HIV-1); experiment: direct-binding ELISA
[33] = target: CH505_w137V201B12.D11gp120 (HIV-1); experiment: direct-binding ELISA
[34] = target: CH505w136.B4D8gp120 (HIV-1); experiment: direct-binding ELISA
[35] = target: CH505w136.B36D8gp120 (HIV-1); experiment: direct-binding ELISA
[36] = target: CH505.TF mutant gp120 M6 (HIV-1); experiment: direct-binding ELISA
[37] = target: CH505w136.B3D8gp120/293F (HIV-1); experiment: direct-binding ELISA
[38] = target: CH505w136.B12D8gp120 (HIV-1); experiment: direct-binding ELISA
[39] = target: CH505w136.B10D8gp120 (HIV-1); experiment: direct-binding ELISA
CH505.M19D8gp120 = experiment: direct-binding ELISA
[40] = target: CH505w160.D1D8gp120 (HIV-1); experiment: direct-binding ELISA
[41] = target: CH505_w137V209C12.D11gp120 (HIV-1); experiment: direct-binding ELISA
CH505.M21D8gp120/293F = experiment: direct-binding ELISA
[42] = target: CH505w160.T2D8gp120 (HIV-1); experiment: direct-binding ELISA
[43] = target: CH505w160.C14D8gp120 (HIV-1); experiment: direct-binding ELISA
CH505.M10D8gp120 = experiment: direct-binding ELISA
[44] = target: CH505w136.B20D8gp120 (HIV-1); experiment: direct-binding ELISA
[45] = target: CH505w160.C12D8gp120 (HIV-1); experiment: direct-binding ELISA
[46] = target: CH505w136.B29D8gp120 (HIV-1); experiment: direct-binding ELISA

Chain of SSB (P05455 whole entry): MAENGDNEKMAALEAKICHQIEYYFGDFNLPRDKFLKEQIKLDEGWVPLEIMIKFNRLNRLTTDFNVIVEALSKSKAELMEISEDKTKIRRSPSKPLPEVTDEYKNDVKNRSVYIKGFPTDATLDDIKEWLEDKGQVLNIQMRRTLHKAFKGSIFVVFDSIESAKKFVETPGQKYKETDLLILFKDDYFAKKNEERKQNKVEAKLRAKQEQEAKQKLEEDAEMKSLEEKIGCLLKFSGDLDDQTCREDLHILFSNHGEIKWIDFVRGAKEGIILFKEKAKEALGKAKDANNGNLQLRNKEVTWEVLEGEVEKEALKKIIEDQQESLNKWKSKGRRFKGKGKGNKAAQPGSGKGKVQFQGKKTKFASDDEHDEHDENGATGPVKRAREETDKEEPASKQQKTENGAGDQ
Chain of Centromere B (P07199 whole entry): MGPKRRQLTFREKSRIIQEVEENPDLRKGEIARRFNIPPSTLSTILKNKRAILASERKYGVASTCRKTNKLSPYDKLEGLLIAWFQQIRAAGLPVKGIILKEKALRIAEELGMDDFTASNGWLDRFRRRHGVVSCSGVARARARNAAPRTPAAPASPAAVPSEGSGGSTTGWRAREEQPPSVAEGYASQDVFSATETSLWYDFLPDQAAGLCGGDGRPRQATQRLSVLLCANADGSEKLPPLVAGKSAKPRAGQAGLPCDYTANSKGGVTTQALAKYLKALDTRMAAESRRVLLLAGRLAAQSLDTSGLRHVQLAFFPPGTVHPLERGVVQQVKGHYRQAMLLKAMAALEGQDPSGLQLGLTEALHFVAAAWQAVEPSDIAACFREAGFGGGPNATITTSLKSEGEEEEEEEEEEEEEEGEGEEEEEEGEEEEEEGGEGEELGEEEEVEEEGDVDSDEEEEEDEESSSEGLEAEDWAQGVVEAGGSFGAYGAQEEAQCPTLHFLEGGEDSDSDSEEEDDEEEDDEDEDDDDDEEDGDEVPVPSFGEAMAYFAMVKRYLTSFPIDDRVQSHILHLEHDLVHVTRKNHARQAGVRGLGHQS
Chain of Jo-1 (P12081 whole entry): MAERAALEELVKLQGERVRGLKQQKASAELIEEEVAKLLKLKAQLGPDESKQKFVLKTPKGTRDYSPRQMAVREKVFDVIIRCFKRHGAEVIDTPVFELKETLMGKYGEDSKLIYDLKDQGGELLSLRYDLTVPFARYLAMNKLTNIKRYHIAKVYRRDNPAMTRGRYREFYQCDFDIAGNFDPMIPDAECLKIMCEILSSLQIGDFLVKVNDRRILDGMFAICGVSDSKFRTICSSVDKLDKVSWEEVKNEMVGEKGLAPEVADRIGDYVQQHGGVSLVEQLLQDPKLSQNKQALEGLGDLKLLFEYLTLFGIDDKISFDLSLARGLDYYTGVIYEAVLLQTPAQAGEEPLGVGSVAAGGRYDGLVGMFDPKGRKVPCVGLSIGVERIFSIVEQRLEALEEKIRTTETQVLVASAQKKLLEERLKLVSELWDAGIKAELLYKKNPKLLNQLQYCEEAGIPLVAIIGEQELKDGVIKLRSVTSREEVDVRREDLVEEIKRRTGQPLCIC
Chain of Scl-70 (P11387 whole entry): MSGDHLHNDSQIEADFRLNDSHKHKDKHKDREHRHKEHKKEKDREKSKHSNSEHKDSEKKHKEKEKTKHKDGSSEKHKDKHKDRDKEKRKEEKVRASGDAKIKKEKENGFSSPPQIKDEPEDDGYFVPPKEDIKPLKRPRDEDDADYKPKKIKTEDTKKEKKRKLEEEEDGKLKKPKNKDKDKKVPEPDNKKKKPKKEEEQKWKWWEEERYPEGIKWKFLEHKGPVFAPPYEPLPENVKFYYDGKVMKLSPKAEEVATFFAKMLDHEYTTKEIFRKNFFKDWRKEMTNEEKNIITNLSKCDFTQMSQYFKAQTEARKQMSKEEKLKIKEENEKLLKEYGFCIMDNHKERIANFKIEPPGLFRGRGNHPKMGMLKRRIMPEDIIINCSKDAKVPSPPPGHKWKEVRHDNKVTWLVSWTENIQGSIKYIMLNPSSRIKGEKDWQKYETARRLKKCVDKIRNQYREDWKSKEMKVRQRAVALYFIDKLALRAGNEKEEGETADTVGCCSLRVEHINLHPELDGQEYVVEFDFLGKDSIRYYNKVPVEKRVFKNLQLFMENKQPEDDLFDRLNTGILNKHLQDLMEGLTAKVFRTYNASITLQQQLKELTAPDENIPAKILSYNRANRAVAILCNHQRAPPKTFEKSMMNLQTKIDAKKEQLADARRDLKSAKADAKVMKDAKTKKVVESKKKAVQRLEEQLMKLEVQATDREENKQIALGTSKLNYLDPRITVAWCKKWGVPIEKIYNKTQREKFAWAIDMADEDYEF

With CH106 (antibody) the AtheNA signal (relative luminescence units) (Scl-70 [1]) was 2, the AtheNA signal (relative luminescence units) (SSB [2]) was 6 and the AtheNA signal (relative luminescence units) (SSA [3]) was 10. The AtheNA signal (relative luminescence units) (Jo-1 [4]) was 4, the AtheNA signal (relative luminescence units) (RNP (ribonucleoprotein) [5]) was 1 and the AtheNA signal (relative luminescence units) (Sm (Smith antigen) [6]) was 5. For the same substance, the AtheNA signal (relative luminescence units) (Centromere B [7]) was 1, the AtheNA signal (relative luminescence units) (Histones [8]) was 2 and the IC50 [9] was 6.8 µg/mL. The IC50 [10] was 4.3 µg/mL, the AtheNA signal (relative luminescence units) (Scl-70 [11]) was 3 and the AtheNA signal (relative luminescence units) (SSB [12]) was 5. For the same substance, the AtheNA signal (relative luminescence units) (SSA [13]) was 11, the AtheNA signal (relative luminescence units) (Jo-1 [14]) was 3 and the AtheNA signal (relative luminescence units) (RNP (ribonucleoprotein) [15]) was 2. The AtheNA signal (relative luminescence units) (Sm (Smith antigen) [16]) was 4, the AtheNA signal (relative luminescence units) (Centromere B [17]) was 2 and the AtheNA signal (relative luminescence units) (Histones [18]) was 2. It also gave an AtheNA signal (relative luminescence units) (Scl-70 [19]) of 2, an AtheNA signal (relative luminescence units) (SSB [20]) of 3 and an AtheNA signal (relative luminescence units) (SSA [21]) of 8. For the same substance, the AtheNA signal (relative luminescence units) (Jo-1 [22]) was 2, the AtheNA signal (relative luminescence units) (RNP (ribonucleoprotein) [23]) was 3 and the AtheNA signal (relative luminescence units) (Sm (Smith antigen) [24]) was 1. For the same substance, the AtheNA signal (relative luminescence units) (Centromere B [25]) was 2, the AtheNA signal (relative luminescence units) (Histones [26]) was 3 and the IC50 [27] was 2.5 µg/mL. It also gave a LogAUC (CH505.M11D8gp120/293F) of 12.8, a LogAUC [28] of 9.29 and a LogAUC [29] of 5.64. The LogAUC [30] was 10.2, the LogAUC [31] was 10.9 and the LogAUC [32] was 12.3. For the same substance, the LogAUC [33] was 12.5, the LogAUC [34] was 11.8 and the LogAUC [35] was 13.1. The LogAUC [36] was 12.6, the LogAUC [37] was 12.6 and the LogAUC [38] was 11.9. The LogAUC [39] was 8.97, the LogAUC (CH505.M19D8gp120) was 12.2 and the LogAUC [40] was 7.06. The LogAUC [41] was 12.2, the LogAUC (CH505.M21D8gp120/293F) was 11.5 and the LogAUC [42] was 6.16. For the same substance, the LogAUC [43] was 6.94, the LogAUC (CH505.M10D8gp120) was 11.8 and the LogAUC [44] was 12.1. For the same substance, the LogAUC [45] was 12.2 and the LogAUC [46] was 12.
